# Assays:
# [1] = target: Unlabeled Ub (from bovine red blood cells, Sigma-Aldrich) (bovine, UniProt P0CG53 1-76); experiment: NMR titration
# 15N-labeled Ub = 15N-labeled Ub (UniProt P0CG47 1-76); experiment: NMR titration
binding result [1],Kd (15N-labeled Ub) [µM],Binder
binds,134 ± 19,TRABID AnkUBD (aa 245-339) (domain or fragment) LEVDFKKLKQIKNRMKKTDWLFLNACVGVVEGDLAAIEAYKSSGGDIARQLTADEVRLLNRPSAFDVGYTLVHLAIRFQRQDMLAILLTEVSQQA
,> 1200,TRABID AnkUBD H317A (domain or fragment) LEVDFKKLKQIKNRMKKTDWLFLNACVGVVEGDLAAIEAYKSSGGDIARQLTADEVRLLNRPSAFDVGYTLVALAIRFQRQDMLAILLTEVSQQA

# From article PMC5260945 (Nature structural & molecular biology, 2011)
